# Data reported in patent publication US20170157251A1, “Bi-Specific Monovalent Diabodies That are Capable of Binding CD19 and CD3, and Uses Thereof” (MacroGenics, Inc., priority 2015, published 2017).
# Experiments:
# human blood leukocytes = assay: Flow cytometry binding to human blood leukocytes (B and T cells); conditions: 0.005 to 80 nM
# Protocol: (§1) Following incubation, binding to leukocytes was detected using a biotinylated anti-E-coil/K-coil (EK) mAb, which recognizes the EK coil heterodimerization region of the DART proteins and streptavidin-PE. […] Similarly, CD20 was used as a B cell marker instead of CD19. Therefore, in this study, the CD4+ and CD8+ gated events represent the T cell population and CD20+ gated events represent the B cell population.
# [1] = system: cynomolgus monkey blood leukocytes; assay: Flow cytometry binding to cynomolgus monkey blood leukocytes (B and T cells); conditions: 0.005 to 80 nM
# Protocol: as §1
molecule,measurement,setting,value
"Control DART 2: control DART capable of binding to fluorescein and CD19 (protein, Amino Acid Sequence of the First Polypeptide Chain of Control DART 2; Amino Acid Sequence of the Second Polypeptide Chain of Control DART 2) chain 1: ENVLTQSPATLSVTPGEKATITCRASQSVSYMHWYQQKPGQAPRLLIYDASNRASGVPSRFSGSGSGTDHTLTISSLEAEDAATYYCFQGSVYPFTFGQGTKLEIKGGGSGGGGEVKLDETGGGLVQPGRPMKLSCVASGFTFSDYWMNWVRQSPEKGLEWVAQIRNKPYNYETYYSDSVKGRFTISRDDSKSSVYLQMNNLRVEDMGIYYCTGSYYGMDYWGQGTSVTVSSASTKGEVAACEKEVAALEKEVAALEKEVAALEKGGGDKTHTCPPCPAPEAAGGPSVFLFPPKPKDTLMISRTPEVTCVVVDVSHEDPEVKFNWYVDGVEVHNAKTKPREEQYNSTYRVVSVLTVLHQDWLNGKEYKCKVSNKALPAPIEKTISKAKGQPREPQVYTLPPSREEMTKNQVSLWCLVKGFYPSDIAVEWESNGQPENNYKTTPPVLDSDGSFFLYSKLTVDKSRWQQGNVFSCSVMHEALHNHYTQKSLSLSPGK chain 2: QAVVTQEPSLTVSPGGTVTLTCRSSTGAVTTSNYANWVQQKPGQAPRGLIGGTNKRAPWTPARFSGSLLGGKAALTITGAQAEDEADYYCALWYSNLWVFGGGTKLTVLGGGGSGGGGEVKLDETGGGLVQPGRPMKLSCVASGFTFSDYWMNWVRQSPEKGLEWVAQIRNKPYNYETYYSDSVKGRFTISRDDSKSSVYLQMNNLRVEDMGIYYCTGSYYGMDYWGQGTSVTVSSASTKGKVAACKEKVAALKEKVAALKEKVAALKE",binding to B cells (CD20+) and T cells (CD4+ and CD8+),human blood leukocytes,only mono-specific binding to B cells
same,binding to B cells (CD20+) and T cells (CD4+ and CD8+),[1],only mono-specific binding to B cells
